Laboratory results: the supplement of paper PMC12455559

Experiment: purified protein yield per well (BCA); higher = higher soluble expression
Procedure, shortened: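 Expression was done in E. coli C41(DE3), using 2 mL autoinduction cultures with 100 µg/mL kanamycin incubated at 37 °C for 2 h and at 18 °C for 40 h. Protein was purified on Ni-charged magnetic beads and released by SUMO protease cleavage. Yield of purified protein per well was measured with the Pierce Rapid Gold BCA kit; values below 25 ug (0.1 mg/mL) are below detection.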

Sequence | purified protein yield per well [µg]
MRSSVTQVPACKGAETSEARPRTGSRPVGLRAVVVAVVAGLIAALVSAQPVSARPAPARPGAAQDNPYERGPDPTVGSVAAQRGTFATAEMNVSPGNGFNGGKIYYPTDTSQGTWGAVAAVPGFTARWAAEGAWMGHWLASFGFVVIGIDTNSPNDYDTARGTQLLAALDYLTQKSPVRDRVDPDRLGVIGHSMGGGGAISAAVRRPSLKAAVPLAPFSPSQDLSTLRVPTMIMGARDDGTVTPSYLDGLYARTPAATQSAFIELTSGGHGFPTWGNSHVTRRMIPWLKIFIDNDTRYTQFLCPSPADRSNISRWQTKCPYVPPGGTTPPPSGGQVVGAGSARCLDVPSQTNGTQVRLWDCLDRAGQKWTRTEAAELRVHGGKCLDAEASGTSPGTRVVIWDCHGGQNQRWNIGTNGTITSTRSGLCLDAYNSGTANGTQVVLWNCNGGANQRWTFR [DP042] | < 25
MRSTSTTPTASSVSGAGAFAISSATVGGGNGFGSATIYFPTDTSQGTFGGLAVSPGFTETQSALRWWAQRLATHGFVVINISTNSTFDNPSSRATQLQNALNYLVNTSSVRTRVDRTRLGVSGHSMGGGGTLEAARNNTALQAAIPLMPWDQTKSFPGILTPTMIVAGQNDTVARPSSHAIPFYNSIPDSSEKVYLELAGAGHNASNSTNPTISLFGVSWAKRYIDNGTRYEQFICPGGGSGISSYRQT [ESM152] | < 25
MSATRGTFATAQLSVPAGNGFGGGVIYYPTDTSQGTFGGVAIVPGYSALFANEEAWMGPWLASFGFVVIGIETNSRTDGADARATQLLAALDYLTQRSSVRDRVDSSRLSVVGHSAGGAGVILATGQRPSLKAAVGLAPGSPTGNLSLANDRVPMMFISGQRDTTVTQSYLNGLYTTLPASTPSAWVEITGVDHLFATRANTTEMRTLIPWLKIFVDNDTRYTQFLCPLMDSSNISMYRNKCPYVPPGGPSPSPSPSPSPSPSPSPSPSPSPSPSPSPSPSPSPSPSPSPSAGACTASYRTTNSWPGGHQGEVTVTAGGSAISGWTVRWTLGSGQTVSQVWNGTLSVSGSTVTVTNASYNGSLPASGSTTFGFLGTGTASAPSLTCTSRP [ESM002] | < 25
MSGFGGGTIYYPSGTTGTMAAIVVIPGYVSSQSSIEWWGPRLASNGFVVMTIDTNATTDQPPARARQINAALDYLIAQNRASGSPVNGMIDTSRLGVVGWSMGGGGTLRVASEGRIKAAIPLAPWDTTTFRNVKAPTLIFACESDTIAPVRNHASPFYNQVPTSIPKAFVQLNRGNHYCANGGNAFNADLSRLGVSWMKRFLDNDRRFSQFLCGPNHTSDRDISEYRGNCPY [TEP104] | < 25
MTVPPGNGFNGGKIYYPTDTSLGTWAAVAAVPGYTARWDAEGAWMGPWLASFGFVVIGIDTNSPTDYDTARGTQLLAALDYLTQKSPVRDRVDPNRLGVLGHSMGGGGAISAAERRPSLKAALPLAPFSPSQNLSSLRVPTMIMGARDDGTVTPSYLNGLYGSMPTATQSAYIELTSGGHGFPTWGNSNVTRRTIPWLKIFLDNDTRYTQFLCPSLADSSGISRSQTKCPYVPPGGTTTPPSGGQIVGAGSGRCLDVPNASQTNGAQVQLWDCSGNVNQKWARTDAGELRVYGSKCLDAEGSGTSPGTRVIVWDCHGGQNQRWNVNTNGTITSVGSGLCLDTNGGGTGNGAQTVLGNCNGAPTQRWTVR [ESM105] | < 25
MVSGTATATPAATAAHPVRAAANPYERGPAPTVASVEAPLGPYAVSRITVARSSVSGFGGGTVHYPTSTADGTFGAVAVSPGFTGTQSSIAWYGPRLASQGFVVLTIDTLTGLDQPASRGRQLLAALDYLTGESAVRGRIDRTRLGVMGHSMGGGGSLEAAKSRTSLKAAIPLTGWNLDTTWPEVRTPTLVVGADGDTVAPVAAHSEPFYASLPGTLDKAYLELKGAVHRTPITANTTIAKYSVSWLKRFIDNDTRYERFLCPLPAPGPTIAEYRGNCPHT [TEP118] | < 25
MVSYSPRYKAVAFTVAAGLVGGGLAGLAPNRHERGPDPTRALLEAPRGPLATARTVVPRAEAAGYGGGTIYHPAEMRTGETYGAVAIIPGRNGPQSGMSWYGPRLASHGFIVFTIDALRPLDRPPARGAQLQAALQQLAVRSPVATHVDAGRLAVMGHSLGGAGALEAAKARPGLRAAIPLTPSDVAGPDFSGVRVPTLILAAEKDTVAPLGRHARKFYRAIPRGTEKAYVELAGATHGFPKLPHPTVARYTIAWLKRWVDGDRRYDRVLCPSGRREPAVSFQRDTCPHD [TEP187] | < 25
MYYPTTTSVGTFGAVAIAPGYTARESSIAWLGPRLASQGFVVFTIDTITTQDQPSSRGDQLRAALSYVATESSVRTRVDGSRLAVMGHSMGGGGSLQAAKDDPSIRAVIPMTPYDLDKTWPEVVAPTLVIGAEDDTVAPVSRHAEPFYESLTQASEKAYLELRGASHFAPNVSNTTIASASIAWLKRHVDADTRYERFICPAPAVSLQISEYRSTC [TEP079] | < 25
NNPAPTPTPTPTPGTPSAYQRGPAPSVSFLQASRGDLSVRTSRVSSFTSGFGGGTIHYPTGTTGTMAAIVVIPGYVSAESSIEWWGPKLASYGFVVMTIDTNSGFDQPPSRARQINSALDYLVSQNSSSRSPVRGMIDTNRLGVVGWSMGGGGTLRVAEEGRIKAAIPLAPWDTTNFRDNYTPTLIFACQSDVIAPVNQHASPFYNQIPSSTDKAFVELSGGSHYCGNGGGVYNNVLGRLGVSWMKRHLDQDTRYDQFLCGPNHESDSRISEYRGNCSN [ESM126] | < 25
NPYERGPAPTTASLEASRGPFATSSFTVSRPSGYGAGTVYYPTNAGGTVGAIAIVPGFLARQSSINWWGPRLASHGFVVITIDTNSTFDQPTSRSRQQLAALDQVAALARTSSSPIYNRVDTTRMGVMGWSMGGGGTLISAQNRPSLKAAAPQAPWNNSTNFSSVTVPTLILACESDSTAPVNQHASPFYNSMSRNSKQYLEINNGSHSCANSGNSNQPLIGKRGVAWMKRFMDNDTRYTSFACANPNSTRVSEFRTANCS [ESM076] | < 25
NTNVPSQACNLTNANGCDSIAILNLTINQADTLYTNIITCDNYTWDGTTYTNSGIYNNVYTNSNGCDSILLNLITIPGPFSVSNIDESSGIRNGLDYDGATIYYPDNGNYLSSIVIVPGFMNTELTVQNWGPFLASYGIVTMTIGTNALTDSEFQRRDALIDAIISLKDENNRSLSPLFGRLNTSSISVGGFSKGGGGAQLVASLDSSIKAIVALYPFIDNPIVSDFDHNIPTFIISGQLDVIAPPAQHADIHYDLIPNSTKKLKYELSVGTHDALSGPYGGLNQVGERVLSFLGLFLENDSCYCPLLDITPSLSSRSKSAPLTKSLMILPAATDALRAGSKSTSAKLAEAVA [TEP057] | < 25
PWTSYSAGATVYYPRTATAPFSAIVFMQPYTGTQAMNYAWGPWFASHGIVYVNYDSTTTLDTVDSRATQQMNAINALKNENNRSASPLYRKLDTSRIGVMGWSMGGGASWINSANSSIKTAMSLAGHSLTAVSIYKSGRYTKCPTMIFSGLLDTTYLGGMGQSEGVYRNIPSGIAKIHYEVRSAGHMAWGSPTSASSNVAKIALAFQKTFLDGDTRWAAYLTQPSDASTWNTASLPSTGGTTPDYPWWYWWR [TEP072] | < 25
QAAANPYERGPAPSVSSIEAARGSYAVSQTSVSSLGVTGFGGGTVYYPTSTADGTFGAVVISPGFTATQSSISWLGPRLASQGFVVFTIDTNSTLDQPDSRGRQLLAALDYLTERSSVRTRIDATRLGVMGHSMGGGGTLEAAKSRPSLQAAIPLTGWNTDKSWPELRTPTLVIGADGDTVAPVATHSEPFYTSLPSSLDKAYLELNGATHFTPNSSNTTIAKYSISWLKRFIDDDTRYEQFLCPLPRPSVTIEEYRGNCPHS [TEP116] | < 25
QACDSLLLESITNPGPFIVNTIDESLGIRNGPGYNGGTIFYPDHIGNFSSIVLVPGFMNSEFTIQNWGAFFASHGIITMTIGTNALTDTHIQRRDALLDAIVSLKAENERLGSPLYGSIDTSSIAVGGFSKGGGGAMLVPAIDPNIKAIISLYPWLENPTSSDLNHSVPVIIISGELDLIAPPFIHADIHYNLLPNTTMKLKYEVALGSHDIISGPNAGNGEVGVRVISWLQNFLLDDSCYCPILTLIPNTSSSYTTNILCNNTSINISSFNTGSDKKLLKITDIFGRETKEILNKYLLFIYDDGTVEKNIVLE [TEP022] | < 25
QAIGPDPTAASLAADGPFAVSTQTASRATGFAGGTIYVPNTAGRYALVAFCPGFTNSQSAVAALGRRLATHGFVVVTMNTNSIFDFPASRATQLIAALNTVAAISTGPVVGKVDSARRMVAGYSMGGGGALIAARGNPSLRGAVALAPWSDSDKNFSTTTVPTAIVAGSADTTASPTDHATVFYNSMPTTTKKLLAIISGATHSFPTTSTPNQPASGYQIAWSKRFADQDVRYGPFLVTDSRLSSFASTGPF [ESM142] | < 25
QARDVTAGNPYQRGPDPTVAMIEARTGPFATASASVPAGYGFNGGMVYYPTDTSLGTWGALAIVPGYSALFANEEAWMGPWLASFGFVVIGVETTTRTDSADARGTELLSALNYLTTQSPVRDRVDPNRLSVLGHSAGGAGAMLAAQRQPTLKAAVGLAPGSPVGNLSLATDTVPTMVIGGQNDSVVTPSYLSGLYATMPASTQSAFAQIAGADHVYYTRPNNVETKLLIPWLKTFLDNDTRYVPFLCPAPPDPSSLSMYVPKCPYVPGGSGPGGGGNTGALHAVGAAKCLAAPSSGTPGTQLTIGTCDGQARQTWTRTATDQLTVTTAGATLCLDASGQGGSPGTKAIVWSCNGQANQHWNVNSNGTVTSAQSGLCLDVTGGSTAEGAPVELWTCNGGGNQQWHLG [TEP085] | < 25
QDCDSLKISSISNPGPYKVKKILEKDGLRDGPDYYGATLYYPEDATPPFASIVIVPGFWSYEPSIQAWGPFLASHGIVTLTIGTNILSDFPEQRALALLDAAETIKQEIIRESSPLYGSLDPTKIAVSGWSMGGGGAQMAAVLDTTLKAVMALAPWQNTQLTETAFNHPVPTLIFSGEKDPTAPASMHATVHYNYTPQTTSKLLFEIKNGNHSVANTPEGGNGDVGRIAIAWLKNLLVGQPCYCPLLLDPPVSASKYVTNLQCSSIASVSRPDGKDDFSP [TEP159] | < 25
QDNPYERGPDPTESLIEASRGPFSVSQTSVSSLVSGFGGGTIYYPTSTSEGTFGAVAISPGFTATESSIAWMGPRLASHGFVVITIDTNTIYDQPSSRGDQLLAALDYMTEDNLTVRGRIDSSRLAVAGHSMGGGGSLEAASSRPALQAAVPLAPWNTDKSWSELRTPTLIIGGESDSIAPVATHSIPFYNSIPASAEKAYLELDNASHFFPQTPNTTQAKYMLSWLKRFVDNDTRYEQFLCPAPDDRDISDYRDTCPHA [TEP150] | < 25
QDNSQGRYRPEGRQVGLAIGREFDERLYEVRTYEPEVGAEAFAGAMVFYPLTLSFDPPNGAVAFVPGFRAPASVYEWWGPALASLGYSVFILETNTPTDALAARADALIAAVDLIKAENQNPDAPVANKIDPEKIAIMGHSMGGGASLVAATQMGDSIKAVIPLALYCCEPGQSFSGDYGSLTLPTMIIASAEDEVAPPAEHAKLLYDSIGGSKTYVEFARGDHMFISNSGDQKATLGRFVLAFLKDILDGR [TEP019] | < 25
